# Results as given in patent publication US7026443.
# Like-named read-outs stand apart in the source and are kept apart here.
# How the values were obtained:
# HLA-A*0301 (human) = assay: competition with 125I-labelled standard peptide for purified HLA-A*0301, gel filtration
# HLA-A*1101 (human) = assay: competition with 125I-labelled standard peptide for purified HLA-A*1101, gel filtration
# [1] = remark: other sources report otherwise
binder,measurement,setting,value
LSLHEDEDK (modifications not checked) [HPV16 E1 620 …],binding affinity ratio (IC50 of standard peptide / IC50 of test peptide),HLA-A*0301 (human),0.0005
same,binding affinity ratio (IC50 of standard peptide / IC50 of test peptide) (ratio to standard peptide),HLA-A*1101 (human),0.0002
LTNILNVLK (modifications not checked) [HPV16 E1 191 …],binding affinity ratio (IC50 of standard peptide / IC50 of test peptide),HLA-A*0301 (human),0.0086
same,binding affinity ratio (IC50 of standard peptide / IC50 of test peptide) (ratio to standard peptide),HLA-A*1101 (human),0.42
LVSMDVKHR (modifications not checked) [HPV16 E1 544 …],binding affinity ratio (IC50 of standard peptide / IC50 of test peptide),HLA-A*0301 (human),0.0005
same,binding affinity ratio (IC50 of standard peptide / IC50 of test peptide) (ratio to standard peptide),HLA-A*1101 (human),0.0089
AICIEKQSR (modifications not checked) [HPV16 E1 112 …],relative binding ratio (IC50 of standard peptide / IC50 of test peptide),HLA-A*1101 (human),0.0057
EGTGCNGWFY (modifications not checked) [HPV16 E1 11 …],relative binding ratio (IC50 of standard peptide / IC50 of test peptide),HLA-A*1101 (human),0.0002
NAKAAMLAK (modifications not checked) [HPV16 E1 202 …],binding affinity ratio (IC50 of standard peptide / IC50 of test peptide) (ratio to standard peptide),HLA-A*1101 (human),0.0031
NINAGTDSR (modifications not checked) [HPV16 E1 567 …],binding affinity ratio (IC50 of standard peptide / IC50 of test peptide) (ratio to standard peptide),HLA-A*1101 (human),0.0002
"NVLKTSNAK (modifications not checked) [… (HPV16 E1, position 196, 9 amino acids)]",binding affinity ratio (IC50 of the standard peptide / IC50 of the test peptide),HLA-A*1101 (human),0.0015
"RLKAICIEK (modifications not checked) [… (HPV16 E1, position 109, 9 amino acids)]",binding affinity ratio (IC50 of the standard peptide / IC50 of the test peptide),HLA-A*1101 (human),0.051
"SLFGMSLMK (modifications not checked) [… (HPV16 E1, position 484, 9 amino acids)]",binding affinity ratio (IC50 of the standard peptide / IC50 of the test peptide),HLA-A*1101 (human),7.1
"SVICFVNSK (modifications not checked) [… (HPV16 E1, position 497, 9 amino acids)]",binding affinity ratio (IC50 of the standard peptide / IC50 of the test peptide),HLA-A*1101 (human),0.0002
"TAQEAKQHR (modifications not checked) [… (HPV16 E1, position 72, 9 amino acids)]",binding affinity ratio (IC50 of the standard peptide / IC50 of the test peptide),HLA-A*1101 (human),0.0025
"PLCPEEKQR (modifications not checked) [… (HPV16 E6, position 116, 9 amino acids)]",relative binding ratio (IC50 of standard peptide / IC50 of test peptide),HLA-A*1101 (human),0.0005
"SCCRSSRTR (modifications not checked) [… (HPV16 E6, position 145, 9 amino acids)]",relative binding ratio (IC50 of standard peptide / IC50 of test peptide),HLA-A*1101 (human),0.0001
"TGRCMSCCR (modifications not checked) [… (HPV16 E6, position 140, 9 amino acids)]",relative binding ratio (IC50 of standard peptide / IC50 of test peptide),HLA-A*1101 (human),0.0001
"WTGRCMSCCR (modifications not checked) [… (HPV16 E6, position 139, 10 amino acids)]",relative binding ratio (IC50 of standard peptide / IC50 of test peptide),HLA-A*1101 (human),0.0008
"YCKQQLLRR (modifications not checked) [… (HPV16 E6, position 39, 9 amino acids)]",relative binding ratio (IC50 of standard peptide / IC50 of test peptide),HLA-A*1101 (human),0.0001
"CCKCDSTLR (modifications not checked) [… (HPV16 E7, position 58, 9 amino acids)]",relative binding ratio (IC50 of standard peptide / IC50 of test peptide),HLA-A*1101 (human),0.0001
"CVQSTHVDIR (modifications not checked) [… (HPV16 E7, position 68, 10 amino acids)]",relative binding ratio (IC50 of standard peptide / IC50 of test peptide),HLA-A*1101 (human),0.0001
"DLQPETTDLY (modifications not checked) [… (HPV16 E7, position 14, 10 amino acids)]",relative binding ratio (IC50 of standard peptide / IC50 of test peptide),HLA-A*1101 (human); [1],0.0002
"GIVCPICSQK (modifications not checked) [… (HPV16 E7, position 88, 10 amino acids)]",relative binding ratio (IC50 of standard peptide / IC50 of test peptide),HLA-A*1101 (human); [1],0.067
"IVCPICSQK (modifications not checked) [… (HPV16 E7, position 89, 9 amino acids)]",relative binding ratio (IC50 of standard peptide / IC50 of test peptide),HLA-A*1101 (human); [1],0.0065
GDTPEWIQR (modifications not checked) [HPV18 E1 position 341 peptide …],binding affinity ratio (IC50 of standard peptide / IC50 of test peptide),HLA-A*1101 (human),0.0002
AGHYRGQCH (modifications not checked) [HPV18 E6 131 …],binding affinity ratio (IC50 of standard peptide / IC50 of test peptide),HLA-A*1101 (human),0.0002
DSIPHAACH (modifications not checked) [HPV18 E6 58 …],binding affinity ratio (IC50 of standard peptide / IC50 of test peptide),HLA-A*1101 (human),0.0002
ELRHYSDSVY (modifications not checked) [HPV18 E6 77 …],binding affinity ratio (IC50 of standard peptide / IC50 of test peptide),HLA-A*1101 (human),0.0002
KLRHLNEKR (modifications not checked) [HPV18 E6 117 …],binding affinity ratio (IC50 of standard peptide / IC50 of test peptide),HLA-A*1101 (human),0.0005
